Experimental data taken from patent publication US12162911B2, “Pulmonary administration of pyocins for treating bacterial respiratory infections” (priority 2014, dated 2024).

Columns and labels:
Assay type in all cases: in vivo, Pseudomonas aeruginosa
P. aeruginosa E2 = assay: Mouse model of acute lung infection, P. aeruginosa E2
Procedure: (§1) Model of acute lung infection. Female C57/BL6 mice were inoculated intranasally with 25 μl of bacterial culture containing approximately 10^7 CFU of the selected P. aeruginosa strain^36. Antibiotic treatments were administered at either 6 h pre-infection or 1 h post-infection and were administered only once. Pyocins or tobramycin dissolved in PBS were administered via intranasal administration as described above. Two different end-points were used in these experiments. In order to determine a reduction in the bacterial load of the lungs compared to the untreated controls, all mice in the experiment were culled by carbon dioxide asphyxiation at the same time; 4-6 h post infection. To determine if mice could survive infection after pyocin or tobramycin treatment, mice were monitored closely, culled by carbon dioxide asphyxiation when required as determined by a scoring system or culled at the pre-determined 24 h time point. Uninfected mice, treated with pyocins, were used as controls in the first series of experiments in order to ensure no adverse effects from pyocin treatment. These controls were stopped in later experiments in order to reduce the number of animals used, once it was clear that the pyocins were not harmful. For CFU determination, lungs were removed aseptically and kept on ice in 750 μl of PBS until homogenised. Serial 10-fold dilutions of the homogenised lung were plated on Pseudomonas selective agar (20 g peptone, 1.5 g K2HPO4, 1.5 g MgSO4·7H2O, 10 ml glycerol, 15 g agar, 0.025 g Irgasan per litre) and incubated at 37° C. for 24 h and then room temperature for 24 h before the colonies were counted.
(§2) Since strains of P. aeruginosa are phenotypically diverse, we tested the efficacy of the pyocins against three additional isolates: P. aeruginosa P17 and P. aeruginosa P5 (mucoid), both from cystic fibrosis patients and P. aeruginosa E2, an environmental isolate. Pyocin S2 was not active against P. aeruginosa P5 or P. aeruginosa E2 in vitro therefore was not used to treat these strains in vivo and similarly pyocin L1 was not used against P. aeruginosa P17. […] Lung homogenates from P. aeruginosa E2-infected AP41-treated mice contained high levels of viable bacteria, reduced only 10-fold relative to control mice (Table 1). […] Thus, pyocins show strong efficacy against diverse strains of P. aeruginosa with pyocin S5 treatment displaying the largest effect on reducing bacterial load.

[1] = system: P. aeruginosa P5 (mucoid); assay: Mouse model of acute lung infection, P. aeruginosa P5
Procedure: as §1, §2

P. aeruginosa P8 = assay: Repeated pyocin exposure followed by P. aeruginosa P8 lung infection and pyocin S5 treatment; conditions: for survival: infected at thirteen weeks, 75 μg intranasal 1 h post-infection
Procedure: Repeated pyocin exposure. Pyocin S5 or PBS was given three times, two weeks apart with administration either via intranasal route (referred to as I.N. groups) or intraperitoneal route (referred to as I.P. groups). For I.N. administration the groups were: PBS and pyocin S5 (75 μg; 25 μl at 3 mg ml^−1). For I.P. administration the group was pyocin S5 (75 μg; 100 μl at 750 μg ml^−1). The PBS I.N. group served as the control group for the I.P. group. Thirteen weeks after the first exposure mice (n=5) were infected intranasally with P. aeruginosa P8 (I.N group infected with 1.4×10^7 CFU, I.P group infected with 5.0×10^6 CFU) and treated intranasally one hour post-infection with 75 μg of pyocin S5 or PBS, as described previously.
To ascertain if repeated exposure to pyocins gives rise to an antibody response that is detrimental to treatment, mice were repeatedly exposed to pyocin S5 to induce an antibody response and the efficacy of pyocin treatment was determined as before after infection with P. aeruginosa P8. Pyocin S5 was administered three times, with two weeks between each administration, either via the intranasal route (I.N.) or the intraperitoneal (I.P.) route. Thirteen weeks after the first treatment, mice (n=5) were infected intranasally with P. aeruginosa P8 (I.N. group infected with 1.4×10^7 CFU, I.P. group infected with 5.0×10^6 CFU) and treated intranasally 1 h post-infection with 75 μg of pyocin S5 or PBS. A control group administered only PBS intranasally prior to infection was also included. […] The levels of pyocin-S5 specific IgG and IgA were analysed for each mouse.

B1: Pyocin S5: S-type pyocin, SEQ ID NO: 13; binds FptA, pore-forming effector (protein, listed as Pseudomonas aeruginosa)
chain: MSNDNEVPGSMVIVAQGPDDQYAYEVPPIDSAAVAGNMFGDLIQREIYLQKNIYYPVRSIFEQGTKEKKEINKKVSDQVDGLLKQITQGKREATRQERVDVMSAVLHKMESDLEGYKKTFTKGPFIDYEKQSSLSIYEAWVKIWEKNSWEERKKYPFQQLVRDELERAVAYYKQDSLSEAVKVLRQELNKQKALKEKEDLSQLERDYRTRKANLEMKVQSELDQAGSALPPLVSPTPEQWLERATRLVTQAIADKKQLQTTNNTLIKNSPTPLEKQKAIYNGELLVDEIASLQARLVKLNAETTRRRTEAERKAAEEQALQDAIKFTADFYKEVTEKFGARTSEMARQLAEGARGKNIRSSAEAIKSFEKHKDALNKKLSLKDRQAIAKAFDSLDKQMMAKSLEKFSKGFGVVGKAIDAASLYQEFKISTETGDWKPFFVKIETLAAGAAASWLVGIAFATATATPIGILGFALVMAVTGAMIDEDLLEKANNLVISI
B1 was tested. Which survival / protection (P. aeruginosa E2; pyocin 3 mg ml^−1, endpoint 24 h, infected controls culled at 5.5 h) did it give?
The survival / protection was “survived until the 24 h endpoint”.

What about the “bacterial count in lung, E2” value (P. aeruginosa E2; pyocin 3 mg ml^−1, treated mice survived to 24 h, no treatment 1.5 × 10^5 CFU/lung) of the same molecule?
Its value is “No colonies”.

What about the survival / protection ([1]; pyocin 3 mg ml^−1, endpoint 24 h, infected controls culled at 4.5 h) of the same molecule?
The survival / protection was “survived until the 24 h endpoint”.

What about the “bacterial count in lung, P5” value ([1]; pyocin 3 mg ml^−1, treated mice survived to 24 h, no treatment 1.7 × 10^5 CFU/lung) of the same molecule?
The value was “No colonies”.

What about the survival (P. aeruginosa P8; I.N. pre-exposure 75 μg three times two weeks apart) of the same molecule?
Its survival is “survived to the 24 h time-point”.

What about the “bacterial load of the lungs” value (P. aeruginosa P8; I.N. pre-exposure 75 μg three times, 75 μg intranasal 1 h post-infection (FIG. 8a)) of the same molecule?
The value was “no viable bacteria were recovered”.

And the survival (P. aeruginosa P8; I.P. pre-exposure 75 μg three times two weeks apart)?
Its survival is “all survived to the 24 h time-point”.

And the “bacterial load of the lungs” value (P. aeruginosa P8; I.P. pre-exposure 75 μg three times, 75 μg intranasal 1 h post-infection (FIG. 8c))?
Its value is “no viable bacteria were recovered”.
